The record followed here is publication PMC12232886, “Multiple and Alternative Sites Make Tau Protein an Adaptable Sticky Surface for the SH3 Domain of Fyn Kinase” (Angewandte Chemie (International Ed. in English), 2025).

Where two headings read alike, the source gives them in different places.

This experiment deals with T1, Fyn-SH3 (Homo sapiens, UniProt P06241).
T1 construct: 82-143) was cloned into the pET-TEV; His-tag (TEV-cleavable, pET-TEV vector) (N, cleaved yes); made in house; host or cells: E. coli BL21(DE3)
T1 sequence (P06241 82-143): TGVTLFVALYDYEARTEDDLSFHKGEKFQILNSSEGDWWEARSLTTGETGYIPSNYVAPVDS
Kind of experiment: Isothermal titration calorimetry (ITC), Fyn-SH3 titrated into Tau fragments. It counts as binding. The conditions noted are these: 20 mM potassium phosphate pH 6.8, 25 °C, error from data fitting. An excerpt:
Figure 3 ITC analysis of Fyn‐SH3 binding to Tau. ITC measurements of Fyn‐SH3 titrated into Tau fragments 151–372 (a), 151–243 (b), 151–372 Δ175–179 (c), 151–372 Δ215–219 (d), 151–372 Δ175–179 Δ215–219 (e). The upper and lower panels show the raw thermograms (DP, differential power), and the integrated heats corrected for the heat of dilution (ΔH), respectively. The blue line in the latter panels represents the fit curve. […]
Isothermal Titration Calorimetry (ITC)
For ITC measurements, purified Fyn-SH3 and Tau proteins were dialyzed overnight against 20 mM potassium phosphate buffer (pH 6.8). Concentrations of proteins were measured using a NanoDrop instrument (Thermo Fisher Scientific), by using molar extinction coefficients at 280 nm. Calorimetric titrations were carried out on a MicroCal PEAQ-ITC instrument (Malvern) at 25 °C. The sample cell contained 20 μM Tau protein and the injection syringe 0.6 mM or 1 mM solution of Fyn-SH3. Only for the Tau mutant 151-372 Δ175-179 Δ215-219, the experiment was conducted with 60 μM Tau protein in the cell and 1.2 mM SH3 in the syringe. Titrations were carried out with a preliminary 0.4 μl injection, followed by 2 μl injections with time intervals of 150 sec, with stirring rate of 500 rpm and reference power of 10 μcal/sec. A blank titration (ligand into buffer) was recorded in the same experimental conditions and the dilution heats were subtracted to the data.
Binding isotherms were analyzed with the MicroCal PEAQ-ITC analysis software, using the two-sets of sites or the one-set of sites fitting models. […]
(In general: Isothermal titration calorimetry measures the heat released or taken up as one component is titrated into another.)

Setting [1] is: one-set of sites model, 20 μM Tau in cell, 0.6 mM or 1 mM SH3 in syringe, read-out: Kd.

With “Tau 151–372 Δ215‐219: Tau 151-372 deletion mutant lacking the PxxP motifs in HSPR2”, the Kd was approximately 12 µM (one-set of sites model, 20 μM Tau in cell, 0.6 mM or 1 mM SH3 in syringe, listed as Tau 151–372 Δ215–219, read-out: Kd); 13 µM (one-set of sites model, 20 μM Tau in cell, 0.6 mM or 1 mM SH3 in syringe, listed as Δ215–219, read-out: Kd); 12.7 ± 4.4 µM under setting [1].

For the substance “Tau 151–243: recombinant Tau fragment 151-243 lacking the HSPR3 and the MBD”, under setting [1], the Kd is approximately 12 µM.

As to “Tau 151–372 Δ175‐179: Tau 151-372 deletion mutant lacking the PxxP motifs in HSPR1”, the Kd (one-set of sites model, 20 μM Tau in cell, 0.6 mM or 1 mM SH3 in syringe, listed as Δ175–179, read-out: Kd) was 12 µM and the Kd under setting [1] was found to be 12.2 ± 5.4 µM.

For the substance “Tau 151–372 Δ175‐179 Δ215‐219: Tau 151-372 double deletion mutant lacking the PxxP motifs in HSPR1 and HSPR2”, the Kd was 10 µM (two-sets of sites model, site I, 60 μM Tau in cell, 1.2 mM SH3 in syringe, listed as Δ175–179 Δ215–219, read-out: KdI); 10.3 ± 2.2 µM (two-sets of sites model, site I, 60 μM Tau in cell, 1.2 mM SH3 in syringe, read-out: KdI); 347 ± 79 µM (two-sets of sites model, site II, 60 μM Tau in cell, 1.2 mM SH3 in syringe, read-out: KdII).

Consider “Tau 151–372: recombinant Tau fragment 151-372, his-tag cleaved, containing all three HSPRs”, for which the Kd is, setting by setting: (two-sets of sites model, site I, 20 μM Tau in cell, 0.6 mM or 1 mM SH3 in syringe, read-out: KdI) 2.5 ± 1.1 µM; (two-sets of sites model, site II, 20 μM Tau in cell, 0.6 mM or 1 mM SH3 in syringe, listed as Tau151‐372, read-out: KdII) 38 µM; (two-sets of sites model, site II, 20 μM Tau in cell, 0.6 mM or 1 mM SH3 in syringe, read-out: KdII) 37.6 ± 22.7 µM.
